Experiment [1] deals with T1, human LILRB4 (human, UniProt Q8NHJ6 22-448). In words: ELISA; panel A.
Experiment [2] addresses T1, human LILRB4. Put plainly: ELISA; panel B. For orientation: In an ELISA, binding on a coated surface is turned into a signal by an enzyme label.
Experiment [3] has as its target T1, human LILRB4. Put plainly: competitive FACS; competition with h2-H1-D7-E5-D5.
Experiment [4] concerns the target T1, human LILRB4. Put plainly: FACS. Background: In flow cytometry, cells or beads pass a laser one at a time.
The target of experiment [5] is T1, human LILRB4. In words: competitive FACS; competition with NGM831.

T1 sequence (Q8NHJ6 22-448): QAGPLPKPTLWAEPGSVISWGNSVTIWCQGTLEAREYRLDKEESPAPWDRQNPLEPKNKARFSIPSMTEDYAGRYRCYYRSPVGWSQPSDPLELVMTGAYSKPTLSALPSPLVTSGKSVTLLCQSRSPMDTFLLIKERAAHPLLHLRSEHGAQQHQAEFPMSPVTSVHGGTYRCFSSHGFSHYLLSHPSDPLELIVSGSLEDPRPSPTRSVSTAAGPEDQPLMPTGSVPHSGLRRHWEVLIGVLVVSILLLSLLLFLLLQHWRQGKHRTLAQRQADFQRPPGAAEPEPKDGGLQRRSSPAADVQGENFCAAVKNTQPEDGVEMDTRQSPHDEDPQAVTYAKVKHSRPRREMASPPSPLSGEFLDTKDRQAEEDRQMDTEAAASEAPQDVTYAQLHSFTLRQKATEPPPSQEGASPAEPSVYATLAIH

B1: h2-H1-D7-E5-D5 (antibody, V domains shown)
VH: EVQLVESGGGLVQPGGSLRLSCAASGFTFSSFGMHWVRQAPGKGLEWVAYISSGSSSIYYADTVKGRFTISRDNAKNSLYLQMNSLRAEDTAVYYCARGTGTGAMDYWGQGTLVTVSS
VL: DIQMTQSPSSLSASVGDRVTITCRTSQDISNYLNWYQQKPGKAPKLLIYYTSKLHSGVPSRFSGSGSGTDFTFTISSLQPEDIATYFCQQGNTLPWTFGGGTKLEIK
For B1, a half-maximal response with human LILRB4 [1] (EC50) required 7.96 nM.

B2: h8-B3-F6-H8 (antibody, V domains shown)
VH: EVQLVESGGGLVQPGGSLRLSCAASGFDFSRYWMSWVRQAPGKGLVWIGEINPESSAINYAPSLKDRFTISRDNAKNTLYLQMNSLRAEDTAVYYCATSMTMDYWGQGTLVTVSS
VL: DIQMTQSPSSLSASVGDRVTITCKASQDIKSYLSWYQQKPGKAPKTLIYYATSLAGGVPSRFSGSGSGTDYTLTISSLQPEDFATYYCLQHGESPYTFGGGTKLEIK
Consider B2, for which the EC50 (in general, the concentration at which the effect is half-maximal) is 0.0286 nM in the experiment with human LILRB4 [2] and 6.33 nM with human LILRB4 [3].

B3: ch8-B3-F6-H8 (antibody, V domains shown)
VH: EVKVIESGGGLVQPGGSLKLSCAASGFDFSRYWMSWVRQAPGKGLEWIGEINPDSSAINYTPSLKDKFIISRDNAKNTLYLQMSKVRSEDTALYYCATSMTMDYWGQGTSVTVSS
VL: DIVMTQSPSSMYASLGERVTITCKASQDIKSYLSWYQQKPWKSPKTLIYYATSLADGVPSRFSGSGSGQDYSLTISSLESDDTATYYCLQHGESPYTFGGGTKLEK
Take B3: the EC50 is 1.49 nM in the experiment with human LILRB4 [4] and 0.0317 nM in the experiment with human LILRB4 [2].

B4: ch2-H1-D7-E5-D5 (antibody, V domains shown)
VH: EVHLVESGGGLVQPGGSRKLSCAASGFTFSSFGMHWVRQPPEKGLEWVAYISSGSSSIYYADTVKGRFTISRDNPKNTLFLQMTSLRSEDTAMYYCARGTGTGAMDYWGQGTSVTVSS
VL: DIQMTQTTSSLSASLGDRVTISCRTSQDISNYLNWYQQKPDGTVKLLIYYTSKLHSGVPSRFSGSGSGTDYSLTISNLDQEDIATYFCQQGNTLPWTFGGGTKLEIK
In turn, B4 displayed a concentration giving a half-maximal response (EC50) in the experiment with human LILRB4 [1] of 1.12 nM.

B5: NGM831 (antibody, V domains shown)
VH: EVQLQQSGPEVKPGASVKISCKASGYTFTDYNMDWVKQSHGKSEWIGYIYPSNGGTGYNQKFKSKATLTVDKSSNTAYMELHSLTSEDSAVYYCARVPYYDYLYYYAMDYWGQGTSVTVSS
VL: QIVLSQSPAILSASPGEKVTMACRASSSVSFMHWYQQKPGSSPQPWIYATSNLASGVPARFSGSGSGTSYSLTISRVEAEDAATYYCQQWSTNPYMYTFGGGTKLEIK
With B5, the EC50 amounted to 0.849 nM in the experiment with human LILRB4 [4], 0.0372 nM with human LILRB4 [1], 0.0265 nM with human LILRB4 [2] and 3.67 nM with human LILRB4 [5].

B6: IO-202 (antibody, V domains shown)
VH: EVQLLESGGGLVQPGGSLRLSCAASGIDFSNHYYMYWVRQAPGKGLEWIGSIFSGDSASTYYADSAKGRFTISRDNSKNTLYLQMNSLRAEDTAVYYCARGMSTNDWASDLWGQGTLVTVSS
VL: DIQMTQSPSSLSASVGDRVTITCQASESINSIYLAWYQQKPGKAPKLLIYRASTLASGVPSRFSGSGSGTDFTLTISSLQPEDFATYYCQQSYDWGDVENTFGGGTKVEIK
Consider B6, for which the EC50 with human LILRB4 [1] was 0.0172 nM; with human LILRB4 [2], 0.0141 nM.

The values above are taken from patent US20250361295A1 (published 2025).
